Test results as given in the nanobody polyreactivity screen of Harvey et al. (2022).

Assay: yeast display, Sf9 membrane polyspecificity reagent, FACS + sequencing; frameworks hold sequencing errors
Summary of the method: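 Galactose induction of a Saccharomyces cerevisiae BJ5465 synthetic nanobody display library ran 36–48 hours. The cells were then stained for 1 hour at 4 °C with 10% biotinylated, detergent-solubilized Sf9 membrane reagent, pulled down on streptavidin microbeads and FACS-sorted into low and high (top ~1%) gates on expression and reagent-binding fluorescence. Labels for polyreactivity follow the gate of origin.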

Row | Sequence | polyreactivity (PSR sort gate)
1 | QVQLVESGGGLVQAGGSLRLSCAASGGIFTQYVMGWYRQAPGKERELVAAINWSGGSTTYAYSVKGRFTISRDNAKNTVYLQMNSLKPEVTAVYYCAAYSYREFYYWGQGTQVTVSS | high polyreactivity
2 | QVQLVESGGGLVQAGGSLRLSCAASGGIFVANAMGWYRQAPGKERELVAAISRSGGSTYYADSVKGRFTISRDNAKNTVYLQMNSLKPEDTAVYYCAAKSRRQYTVGLTSDYWGQGTQVTVSS | high polyreactivity
3 | QVQLVESGGGLVQAGGSLRLSCAASGGIFVDNAMGWYRQAPGKERELVATITSTGSTNYADSVKGRFTISRDNAKNTVYLQMNSLKPEDTAVYYCNADGILQDYDYWGQGTQVTVSS | low polyreactivity
4 | QVQLVESGGGLVQAGGSLRLSCAASGGIFVFYAMGWYRQAPGKERELVAAIRYGGSSTYYADSVKGRFTISRDNAKNTVYLQMNSLKPEDTAVYYCAAEHYSVYDPIGDYWGQGTQVTVSS | low polyreactivity
5 | QVQLVESGGGLVQAGGSLRLSCAASGGIFVPNAMGWNRQAPGQEREFVARISFSGVSTYYADSVKGRFTISRDNAKNSVYLQLNSLKPEDTAVYYCACDKRARLGAMGYWGQGTQVTVSS | low polyreactivity
6 | QVQLVESGGGLVQAGGSLRLSCAASGGIFVSYAMGLYRQAPGKERELVARINSVDGTNYADSVKGRFTISRDNAKNTVYLQMNSLKPEDTAVYYCAVRSPVLASDYGYYFLRDYWGQGTQVTVSS | low polyreactivity
7 | QVQLVESGGGLVQAGGSLRLSCAASGGIFVYNMGWYRQAPGKERELVAAISVSGGSTYYADSVKGRFTISRDNAKNTVYLQMNSLKPEDTAVYYCAASRPPYRDDYWGQGSQVTVSS | high polyreactivity
8 | QVQLVESGGGLVQAGGSLRLSCAASGGIFVYYAMGWYRQAPGKERELVAAISSGGTTNYADSVKGRFTISRDNAKNTVYLQMNSLKPEDTAVYYCAIYVSWPLYYYWGQGTQVTVSS | low polyreactivity
9 | QVQLVESGGGLVQAGGSLRLSCAASGGIFWHYTMGWYRQAPGKERELVAAITRRGGSTYYADSVKGRFTISRDNAKNTVYLQMNSLKPEDTSVYYGAAVFEWTSRGSYYRYYYWGQGTQVTVSS | low polyreactivity
10 | QVQLVESGGGLVQAGGSLRLSCAASGGIFWRYAMGWYRPAPGKERELVAAISSRGGSTYYADSVKGRFTISRDNAKNTVYLQMNSLKPEDTAVYYCAADRRYAESGYYWGQGTQVTVSS | high polyreactivity
11 | QVQLVESGGGLVQAGGSLRLSCAASGGIFWTYAMGWYRQEPGKERELVAAISYSDGITYYADSGKGRFTISRDNAKNTVYFQMYSLKPEDTAVYYCAADPELAVPMYYWGQGTQVTVSS | low polyreactivity
12 | QVQLVESGGGLVQAGGSLRLSCAASGGIFYDYTMGWYRQAPGKERELVAVISSSGSTYYADSVKGRFTISRDNAKNTVYLLMNSLKPEDTAVYYCNALGWYGDYDYWGQGTQVTVSS | low polyreactivity
13 | QVQLVESGGGLVQAGGSLRLSCAASGGIFYGYAMGWYRQAPGKERELVASISSDDRTNNADSVKGRFTISRDNAKNTVYLQMNSLKPEDTAVYSCNAELGSDTSNFDYWGQGTQVTVSS | low polyreactivity
14 | QVQLVESGGGLVQAGGSLRLSCAASGGIFYSNAMGWYRPAPGKERELVAAISRDGTITYYADSVKGRFTISRDNAKNTVYLQMNSLKPEDTAVYYCAADASIQSWYSIYDYWGQGTQVTVSS | high polyreactivity
15 | QVQLVESGGGLVQAGGSLRLSCAASGGIFYSYAMGWYRQAPGKEREFVAAIRRSGGRTYYADSVKGRFTISRDNAKNTVYLQMNSLKPEDTAVYYCAADGWYSGGHDYWGQGTQVTVSS | high polyreactivity
16 | QVQLVESGGGLVQAGGSLRLSCAASGGIIEDNMGWYRQAPGKERELVAAIDLRADSTYYADSVKGRFTISRDNAKNTVYLQMNSLKPEDTAVYYCAAGARQGVYRGGDYWGQGTQVTVSS | low polyreactivity
17 | QVQLVESGGGLVQAGGSLRLSCAASGGIILPYAMGWYRQAPGKERELVAAISGRTGSTNYADSVKGRFTISRDNAKNTVYLQMNSLKPEDTAVYYCAARGVRSYFFPYNYWGQGTQVTVSS | high polyreactivity
